Experimental data: the supplement of paper PMC9732359
± gives the uncertainty stated by the source.

Assay: protein stability index of a GFP-peptide fusion (yeast GPS) (PSI 1-4); higher = more stable; sorted into four equal gates, so the index is relative within each strain
In short: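 The protein stability index combines read frequencies across sorting gates, each weighted by its gate number and then summed. To obtain those frequencies, a pooled yeast library of GFP fusions to tiled 17-residue yeast protein peptides, on a plasmid also expressing Cherry, was grown to mid-log phase in leucine-free medium. The cells were sorted into four equal gates by GFP/Cherry ratio before plasmid amplification by PCR and Illumina sequencing.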

Sequence | protein stability index (doa10∆) | protein stability index (pdr5∆) | protein stability index (san1∆) | protein stability index (ubr1∆)
GTANNNSNTTNQNSSTG [YJL041W/NSP1] | 3.19 ± 0.064 | 3.37 ± 0.075 | 3.25 ± 0.042 | 3.09 ± 0.061
ARNVTFDSLRNFIVHSP [GRR1] | 2.14 ± 0.063 | 2.35 ± 0.057 | 2.25 ± 0.08 | 1.94 ± 0.041
SEDHSFRKIKLRVDEVQ [RPS1A] | 3.1 ± 0.12 | 3.16 ± 0.11 | 3.1 ± 0.071 | 3.22 ± 0.071
GLDQSRIPFSERKLKFS [FAS1] | 1.81 ± 0.061 | 1.29 ± 0.059 | 1.11 ± 0.085 | 1.12 ± 0.048
GQLLSVKFLVYQGVYSM [YML031W/NDC1] | 1.61 ± 0.084 | 1.75 ± 0.14 | 1.48 ± 0.11 | 1.98 ± 0.11
FDSLRNFIVHSPMLKRI [GRR1] | 2.89 ± 0.084 | 2.47 ± 0.079 | 2.8 ± 0.074 | 2.64 ± 0.076
HFQDQKNKKIEVYTKTI [POP7] | 3.19 ± 0.11 | 2.83 ± 0.12 | 3.23 ± 0.084 | 2.7 ± 0.086
YDIDEIDHSDESNRQSV [ESC2] | 3.19 ± 0.14 | 3.35 ± 0.096 | 3.23 ± 0.13 | 3.84 ± 0.25
TPPAIEHKPVSPDKIGT [SSN2] | 3.03 ± 0.072 | 3.35 ± 0.066 | 3.12 ± 0.076 | 3.17 ± 0.06
TESVPEPKLFRMRIFAS [RPL20A] | 3.36 ± 0.13 | 3.02 ± 0.18 | 3.02 ± 0.13 | 1.21 ± 0.24
PKLKEGALHFVQQSEKL [YIL149C/MLP2] | 2.58 ± 0.064 | 2.33 ± 0.082 | 2.31 ± 0.066 | 2.88 ± 0.05
GMKVKADRDESSPYAAM [RPS14B] | 1.32 ± 0.067 | 1.09 ± 0.12 | 1.14 ± 0.22 | 1.2 ± 0.089
LPKLKATGHRVLIFFQM [SNF2] | 1.69 ± 0.13 | 1.52 ± 0.083 | 2.09 ± 0.12 | 2.09 ± 0.14
EMKTQAAELQEKPLTPL [SNF6] | 2.97 ± 0.19 | 3.14 ± 0.12 | 2.8 ± 0.088 | 2.89 ± 0.087
PSLELSAEYLQMSLEAN [YJR042W/NUP85] | 1.78 ± 0.087 | 2.15 ± 0.095 | 2.54 ± 0.18 | 2.4 ± 0.07
SIGSDILTAEKMRGNGN [RRP4] | 3.21 ± 0.097 | 3.39 ± 0.09 | 3.38 ± 0.05 | 3.32 ± 0.062
YVSDSDDSSSDNDSLTD [SIR4] | 2.51 ± 0.051 | 2.94 ± 0.038 | 2.67 ± 0.056 | 2.63 ± 0.047
KTNFQDVILDYQTKKFY [REC8] | 1.62 ± 0.072 | 1.59 ± 0.051 | 1.16 ± 0.096 | 1.24 ± 0.039
KLLIQIDELSNGQRSNS [SMC1] | 2.42 ± 0.16 | 2.59 ± 0.11 | 3.14 ± 0.1 | 3.11 ± 0.16
NNNSSNEKEQLSFINPK [SEC65] | 2.83 ± 0.045 | 3.11 ± 0.052 | 2.8 ± 0.034 | 2.92 ± 0.036
ERLQLLEDVVGAKSFEV [SMC3] | 3.14 ± 0.21 |  |  | 
ESQPKQTGTRRNSKLLN [MCD1] | 3.29 ± 0.099 | 3.16 ± 0.12 | 3.19 ± 0.079 | 3.12 ± 0.076
IVDGKLKTEKIFKEINE [FAS1] | 1.76 ± 0.074 | 1.85 ± 0.13 | 1.91 ± 0.11 | 1.91 ± 0.091
DIFSNLSSDDLLGKESF [YCS4] | 2.87 ± 0.05 | 2.24 ± 0.05 | 2.95 ± 0.044 | 2.86 ± 0.034
VEDDLVTVQTELNEEKK [SMC2] | 3.23 ± 0.16 | 2.55 ± 0.078 | 2.55 ± 0.08 | 2.85 ± 0.087
MNETLNLKVELKEQSEQ [SMC4] |  |  | 2.14 ± 0.29 | 3.42 ± 0.12

Sequence | protein stability index (doa10∆) | protein stability index (pdr5∆) | protein stability index (san1∆) | protein stability index (ubr1∆)
NWIKPSDSEIPPLLVYK [PRP8] | 2.16 ± 0.065 | 2.24 ± 0.056 | 2.21 ± 0.075 | 2.12 ± 0.063
VENGTTSIGIKCNDGVV [PRE10] | 2.14 ± 0.11 | 2.1 ± 0.089 | 1.35 ± 0.21 | 3.31 ± 0.22
KKICNHPFVFEEVEDQI [SNF2] | 3.17 ± 0.064 | 2.89 ± 0.055 | 2.94 ± 0.06 | 2.86 ± 0.045
KEEFSSAENRDEKDYLT [CSE2] | 2.79 ± 0.083 | 2.85 ± 0.086 | 2.65 ± 0.065 | 2.99 ± 0.12
AVINIRDDGKRELLVEG [RPO31] | 3.56 ± 0.2 | 3.06 ± 0.22 |  | 3.14 ± 0.1
AFIDERASDLRMTIRTR [RRP43] | 1.81 ± 0.18 | 1.57 ± 0.11 | 1.24 ± 0.25 | 1.39 ± 0.12
AVHVTVRGPKAEEILER [RPL11A] | 2.99 ± 0.11 | 2.98 ± 0.094 | 2.92 ± 0.12 | 3.05 ± 0.074
FFYLRISKKLQFSYLSS [PCI8] | 1.22 ± 0.076 | 1.24 ± 0.059 | 1.24 ± 0.11 | 1.33 ± 0.044
QPKRNLSRYVKWPEYVR [RPL8A] | 2.87 ± 0.096 | 2.98 ± 0.046 | 3.06 ± 0.06 | 2.99 ± 0.066
INQIFSPEEQRSLLQEA [GAL11] | 2.95 ± 0.12 | 3.07 ± 0.063 | 3.53 ± 0.11 | 3.03 ± 0.1
STFREWKNLVLKLSQAF [YJR042W/NUP85] | 2.85 ± 0.079 | 2.37 ± 0.096 | 2.64 ± 0.068 | 2.74 ± 0.076
YSENGKHDSLRYRLLSD [RPN1] | 2.5 ± 0.073 | 2.49 ± 0.075 | 2.51 ± 0.1 | 2.49 ± 0.1
WLEQFLSCVKNDTISED [NUT1] | 1.73 ± 0.046 | 1.51 ± 0.04 | 1.36 ± 0.059 | 1.54 ± 0.035
KENGQLIGAATKFKGGK [SEC65] | 1.7 ± 0.057 | 1.65 ± 0.073 | 1.54 ± 0.11 | 2.17 ± 0.072
LSDRITGNFIIPSGNVW [PRP8] | 2.76 ± 0.1 | 3.1 ± 0.087 | 2.84 ± 0.064 | 2.9 ± 0.065
MKNKAETTTEEDSENPS [ITC1] | 3.31 ± 0.19 | 3.27 ± 0.14 | 3.03 ± 0.13 | 3.31 ± 0.15
FKKLNSKNMSKSPSLTA [YMR153W/NUP53] | 2.21 ± 0.065 | 2.38 ± 0.048 | 2.19 ± 0.067 | 2.13 ± 0.071
FVCEKSIEFAKREKRVF [RPN6] |  |  |  | 2.41 ± 0.25
KEMTLQKNMNDLLRSQL [YIL149C/MLP2] | 3.08 ± 0.049 | 2.43 ± 0.052 | 2.19 ± 0.082 | 2.64 ± 0.046
MDSKGKITIGIQRTTES [RGR1] | 3.44 ± 0.075 | 3.39 ± 0.066 | 3.33 ± 0.083 | 3.11 ± 0.075
SLKQYAGNLITTPEINN [SRP68] | 2.69 ± 0.073 | 2.88 ± 0.061 | 2.92 ± 0.076 | 2.31 ± 0.041
NLPPHYALFLKALRRKI [SSN2] | 2.15 ± 0.11 | 1.79 ± 0.095 | 2.8 ± 0.22 | 1.7 ± 0.087
KKRKIHNGREGSIEEPE [MCD1] | 3.26 ± 0.066 | 3.24 ± 0.06 | 3.17 ± 0.051 | 3.27 ± 0.042
LELNLSVLHSWVQLVQI [YJL039C/NUP192] | 1.28 ± 0.074 | 1.91 ± 0.085 | 2.11 ± 0.12 | 1.93 ± 0.09
AHSLSPKDYIKKLLEVH [CDC53] | 1.7 ± 0.042 | 2.23 ± 0.064 | 2.56 ± 0.056 | 1.77 ± 0.042
TIFKYLTDKDAFETHYR [CDC53] | 3.27 ± 0.11 | 3.12 ± 0.086 | 3.09 ± 0.049 | 2.98 ± 0.061
